Measurements reported in the supplement of paper PMC9942255.

Tested on: Bacillus subtilis DB104 (SP-AmyQ fusion secretion)
Experiment: AmyQ secretion efficiency, weighted average sort bin (1 = best secretion, 10 = worst) (bin number (weighted average, 1-10)); higher = lower secretion efficiency
How it was run: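 The secretion score was taken as the read-frequency-weighted mean bin number, normalised to beads per bin, with low-abundance sequences excluded. Bins came from large-particle flow cytometry sorting of occupied alginate beads (~65 nL, about 0.3 cells each, with fluorescein-starch) into 10 equally populated groups by green/red fluorescence ratio after about 13 h at room temperature and nile red staining. The cells were a B. subtilis DB104 library with mature AmyQ fused to designed signal peptides, integrated at amyE, and each bin's amplicons were Illumina-sequenced.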

Sequence	AmyQ secretion efficiency
MIVIKRKRKRIIVFLSVIQPQPS	8.52
MKKKQVSHAIIISVMLSFVIAVFRRHRKHASELTP	7.4
MRNLTKTSLLLAGLCTAAQMVFVTHASGEES	2.76
MKKQIITATTAVVLGSTLFAGAPSAQSI	3.52
MKKALTLCPAIVGSLLFFTAPASAHVS	2.41
MKKKTLSLFVGLMLLIGLLFSGSLPYNPNAAEASSS [wt_amyM]	3.81
MRHKIITFILAVVVIIIIGNMIGGGGGSEATSE	3.29
MRPVFPLILSAVLFLSCFFGARQTEASESKR	2.54
MNLRKILLSSALSLGMLVSAAPYLATSS	5.88
MGLGKKLSVAVAASFMSLSISLDDEVQAAEG	1.35
MKKAFLVFLMVVLVLMVFLTVKQQESVAQAKQL	3.05
MKLWMRKTLVVLFTIVTFGLVIATFTTVAVSPPAALMADKP	4.44
MKRIRIPMTLALGAALTIAPLSFASMEEN	6.12
MKLAKRVSALTPSTTLAITAKNKEL	8.25
MFKKHTISLLIIFLLASAVLAKPIEPHTV	7.19
MRKWYFILLAGVLTSVILAFVYDKTKYNEE	4.09
MKWMCSICCAAVLLAGGAAQAAAD	4.17
MKKKQVMLALTAAAGLHSAPAAKAAPL	3.17
MNKKKKVVSALSISALALSVSGVASAHEI	3.7
MKKRKRRNFKRFIAAFLVLALMISLVPADCLAKST	3.04
MPYLKRVLLLLVTGLFMSLFAVTATASAQRK	2.03

Sequence	AmyQ secretion efficiency
MRSYIKVLTMCFLGLILFVFSSLPTALADNS	2.22
MKKLLAAGIIGLLTVSSFAAEK	6.74
MKKQIITATTAVVLGSTLFAGAASIQSI	5.61
MTMLRKIIGWILLLCIIPLFAFTVIASVKEV	7.89
MKLAKRTSALTPSTTLAITAKAKEL	6.93
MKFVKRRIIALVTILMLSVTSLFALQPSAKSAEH	2.64
MKLAKRVSALTPSTTLAIEAKAKEL	7.23
MPYLKRVLLLLVTGLFMSLFAVTATASNQTG	1.29
MKNMSCKLVVSVTLFFSFLGIFVLAHAQNS	4.32
MKSKGSIMACLILFSFTITTFINTETISGFSN	6.11
MKKWMITIAMLKKKRRRLFVFISPLKSHKT	7.47
MKRFLIGAGVAAVILKRWFIARHQTHSQEM	7.28
MRKKCSVCKKRRKRLLSCLSGKSAYAATS	7.64
MRKYTVIASILLSFLSVLSGGHHEWKAFPV	4.79
MLKRTSFVSSLFISSAVLLSILLPSGQAHAQKR	2.41
MKKWLIIAVSLAIAIVLFMYTKGEKKAAGM	5.84
MRSYIKVLTMCFLGLILFVPTALKDNS	7.49
MFKFKKNTRGGLSAALMSISLFSATASAAST	3.49
MKLRKSTKYQSYSLGLLVSASPAFATSP	6.69
MTLALRVSALTPSTTLAITAKAKEL	7.08
MRMLWRSLALCGLALTLAPCAQADDD	4.62

Sequence	AmyQ secretion efficiency
MKMKSGMEQAVSVLLLLSRLPVQASLTSD	6.62
MKLWMRKTLVVLFTIVTFGLVSPPAAIMADKP	1.63
MLKRTSFVSSSFISSAVLLSILLPSGQAHAQSA	2.16
MKRIRIPMTLALGAALTIAPLDEDASAEEN	3.3
MKKKLAAGLTASAIVGTTLVVTPTAAEAATI	2.99
MKKLLAAGIIGLLTVSIASPNFAAEK	5.52
MTKKAWFLPLVCVSGWLAPAASASAQTT	2.07
MKSLPYTIALLFCGLIIVSMAAKGHKK	6.13
MKRLLVSLRVWMVFLMNWVTPDRKTRAAAVY	6.54
MKKERGGTYVLCLSLSPLVSTNEVFAATT	8.09
MLKKKWMVGLLAGCLAAGGFSYNAFATPR	3.48
MGLGKKLSVAVAASFMSLSISLPGVQTAEG	3.78
MYNRKRRVCFLAALIMAFTLPNSVYAQKP	2.73
MKKWMITIAMLILAGIALFVFIFSPLKSHKT	7.63
MKKGIIRTGRQSFVLFFALSTGITGVQAAPA	5.13
MMKKLFHSTLIVLLFFSFFGVQPIHAKKR	2.74
MLKKIALTLCPAIVGSLLFFTAPASRHVS	6.05
MAIIIAIIAAVIVIAALITFNVRNISPG	7.65
MKVPKTMYQRRQAGLLLSLTATSVSAHYV	6.61
MKKVLMAFIICLSLILSAKAESV	4.24
MKKCRKSIKRFLVSLIIGTFVISVPFMANAQSD	1.76
